Our source for the IC50 values is US20150051149A1 (published 2015).

Some results are limits rather than exact numbers.

The target in one assay is DRB*0701 (human). Put plainly: HLA competition binding.
For another assay, the target named is DRB*0301 (human, UniProt P01903 26-216). Put plainly: HLA competition binding.

As to PTSLLISWDAPAVTVRYYRITYG [BC Loop SEQ ID NO 58], in the assay with DRB*0701, the IC50 (usually the midpoint of a concentration-inhibition curve) turned out to be 1000 nM. Turning to PVQEFTVPGSKSTATISGLK [DE Loop SEQ ID NO 51], in the assay with DRB*0701, the IC50 was > 200000 nM. For MGEVVAATPTSLLIS [N-terminal to BC Loop SEQ ID NO 53], the figures for the IC50 in the assay with DRB*0701 and in the assay with DRB*0301 were 500 nM and 1000 nM, respectively.
